Test results published in US20080267971A1 (published 2008).

B4: human Angiopoietin-1 (ligand)
chain: SNQRRSPENSGRRYNRIQHGQCAYTFILPEHDGNCRESTTDQYNTNALQRDAPHVEPDFSSQKLQHLEHVMENYTQWLQKLENYIVENMKSEMAQIQQNAVQNHTATMLEIGTSLLSQTAEQTRKLTDVETQVLNQTSRLEIQLLENSLSTYKLEKQLLQQTNEILKIHEKNSLLEHKILEMEGKHKEELDTLKEEKENLQGLVTRQTYIIQELEKQLNRATTNNSVLQKQQLELMDTVHNLVNLCTKEVLLKGGKREEEKPFRDCADVYQAGFNKSGIYTIYINNMPEPKKVFCNMDVNGGGWTVIQHREDGSLDFQRGWKEYKMGFGNPSGEYWLGNEFIFAITSQRQYMLRIELMDWEGNRAYSQYDRFHIGNEKQNYRLYLKGHTGTAGKQSSLILHGADFSTKDADNDNCMCKCALMLTGGWWFDACGPSNLNGMFYTAGQNHGKLNGIKWHYFKGPSYSLRSTTMMIRPLDF
notes: Bought recombinant protein (R&D Systems 293-AN-025/CF) or supernatant of transfected 293F cells; also called Ang-1; recombinant Ang-1

What was measured:
mouse Angiopoietin-2 = biological target: T1, mouse Angiopoietin-2 (mouse, UniProt O35608 19-496); assay: ELISA, recombinant mouse Ang-2
T1 construct: Used as conditioned medium of transfectants; also called mAng-2; mouse Ang-2
T1 sequence: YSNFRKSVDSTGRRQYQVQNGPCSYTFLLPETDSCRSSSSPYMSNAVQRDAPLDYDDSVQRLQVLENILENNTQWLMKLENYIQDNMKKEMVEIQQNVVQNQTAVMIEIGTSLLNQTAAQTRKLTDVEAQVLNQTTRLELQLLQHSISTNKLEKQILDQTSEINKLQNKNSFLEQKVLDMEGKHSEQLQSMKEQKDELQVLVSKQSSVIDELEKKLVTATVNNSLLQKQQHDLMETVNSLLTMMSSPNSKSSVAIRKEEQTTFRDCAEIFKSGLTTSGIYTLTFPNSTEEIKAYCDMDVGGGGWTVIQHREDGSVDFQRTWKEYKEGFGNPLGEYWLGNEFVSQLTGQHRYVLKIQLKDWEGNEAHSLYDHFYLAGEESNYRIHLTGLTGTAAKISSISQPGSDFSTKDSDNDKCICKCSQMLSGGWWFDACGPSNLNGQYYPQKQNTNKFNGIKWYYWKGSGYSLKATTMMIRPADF

human Angiopoietin-1 = biological target: B4; assay: capture ELISA
Description: The binding of the top 27 human monoclonal antibodies was detected with a HRP-conjugated goat anti-human antibody, followed by colorimetric horseradish peroxidase substrate (Enhanced K-Blue TMB substrate Neogen Corporation). The absorbance of each well of the ELISA plates was measured at 450 nm on a microplate autoreader.

human Angiopoietin-2 [1] = biological target: T2, human Angiopoietin-2 (human, UniProt O15123 19-496); assay: inhibition of rhAng-2 binding to its receptor
T2 construct: Mostly bought recombinant protein (R&D Systems 623-AM/CF, 623-AN; biotinylated BT623) or supernatant of transfected 293F cells; also called Ang-2; rhAng-2
T2 sequence: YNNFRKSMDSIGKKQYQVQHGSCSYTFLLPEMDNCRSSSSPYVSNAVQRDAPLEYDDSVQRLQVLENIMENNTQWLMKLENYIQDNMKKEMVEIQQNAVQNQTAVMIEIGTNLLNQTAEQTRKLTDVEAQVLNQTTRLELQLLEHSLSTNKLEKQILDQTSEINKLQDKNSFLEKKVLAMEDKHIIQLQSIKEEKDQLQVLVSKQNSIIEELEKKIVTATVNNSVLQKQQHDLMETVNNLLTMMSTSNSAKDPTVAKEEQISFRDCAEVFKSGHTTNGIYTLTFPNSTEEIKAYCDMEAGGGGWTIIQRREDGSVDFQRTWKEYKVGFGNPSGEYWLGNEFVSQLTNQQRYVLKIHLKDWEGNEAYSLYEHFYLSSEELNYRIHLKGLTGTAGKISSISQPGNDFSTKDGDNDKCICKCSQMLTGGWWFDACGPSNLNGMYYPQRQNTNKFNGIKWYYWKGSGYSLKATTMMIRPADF

human Angiopoietin-2 [2] = biological target: T2, human Angiopoietin-2; assay: Biacore, mAb captured
Description: (§1) The label-free surface plasmon resonance (SPR), or Biacore, was utilized to measure the antibody affinity to the antigen. For this purpose, a high-density goat anti-human antibody surface over a CM5 Biacore chip was prepared using routine amine coupling. All the purified mAbs were diluted to approximately 8 μg/ml in HBS-P running buffer containing 100 μg/ml BSA and 10 mg/mL carboxymethyldextran. Each mAb was captured on a separate surface using a 42-second contact time, and a 5-minute wash for stabilization of the mAb baseline.
(§2) Data were fit globally to a 1:1 interaction model to determine the binding kinetics.

human Angiopoietin-2 [3] = biological target: T2, human Angiopoietin-2; assay: Biacore; kd held constant (*)
Description: as §1, §2

human Ang-2 V345M = biological target: T3, human Ang-2 V345M (human, UniProt O15123 19-496); assay: ELISA
T3 sequence: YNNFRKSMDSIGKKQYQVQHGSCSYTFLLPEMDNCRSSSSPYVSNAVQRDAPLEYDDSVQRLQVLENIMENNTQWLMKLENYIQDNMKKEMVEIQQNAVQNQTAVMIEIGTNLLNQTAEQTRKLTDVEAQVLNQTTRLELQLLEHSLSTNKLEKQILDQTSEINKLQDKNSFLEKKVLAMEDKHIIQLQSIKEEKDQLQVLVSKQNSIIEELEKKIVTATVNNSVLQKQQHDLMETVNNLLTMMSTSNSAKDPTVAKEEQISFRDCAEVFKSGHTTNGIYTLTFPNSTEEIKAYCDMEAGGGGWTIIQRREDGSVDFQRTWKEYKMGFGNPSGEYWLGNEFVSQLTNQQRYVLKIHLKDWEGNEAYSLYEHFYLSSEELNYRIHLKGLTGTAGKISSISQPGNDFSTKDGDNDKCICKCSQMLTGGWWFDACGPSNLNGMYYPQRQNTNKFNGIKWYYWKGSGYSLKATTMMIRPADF

human Ang-2 H375Q = biological target: T4, human Ang-2 H375Q (human, UniProt O15123 19-496); assay: ELISA
T4 sequence: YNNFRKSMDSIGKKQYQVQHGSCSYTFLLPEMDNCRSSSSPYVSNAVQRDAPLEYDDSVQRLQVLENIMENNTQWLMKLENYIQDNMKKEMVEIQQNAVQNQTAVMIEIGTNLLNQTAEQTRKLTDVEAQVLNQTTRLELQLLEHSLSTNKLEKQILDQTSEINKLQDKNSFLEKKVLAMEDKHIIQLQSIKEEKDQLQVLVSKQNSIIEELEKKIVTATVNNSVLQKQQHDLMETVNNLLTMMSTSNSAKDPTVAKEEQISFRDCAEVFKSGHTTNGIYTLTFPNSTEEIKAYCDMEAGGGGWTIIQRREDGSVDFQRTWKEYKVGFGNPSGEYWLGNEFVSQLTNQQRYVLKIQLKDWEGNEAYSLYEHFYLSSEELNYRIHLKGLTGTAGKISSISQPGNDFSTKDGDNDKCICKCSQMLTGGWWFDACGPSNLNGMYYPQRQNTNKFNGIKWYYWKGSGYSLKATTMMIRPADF

[4] = biological target: T5, Human Ang-1/2 BsmI chimeric molecule (human); assay: ELISA
T5 chain: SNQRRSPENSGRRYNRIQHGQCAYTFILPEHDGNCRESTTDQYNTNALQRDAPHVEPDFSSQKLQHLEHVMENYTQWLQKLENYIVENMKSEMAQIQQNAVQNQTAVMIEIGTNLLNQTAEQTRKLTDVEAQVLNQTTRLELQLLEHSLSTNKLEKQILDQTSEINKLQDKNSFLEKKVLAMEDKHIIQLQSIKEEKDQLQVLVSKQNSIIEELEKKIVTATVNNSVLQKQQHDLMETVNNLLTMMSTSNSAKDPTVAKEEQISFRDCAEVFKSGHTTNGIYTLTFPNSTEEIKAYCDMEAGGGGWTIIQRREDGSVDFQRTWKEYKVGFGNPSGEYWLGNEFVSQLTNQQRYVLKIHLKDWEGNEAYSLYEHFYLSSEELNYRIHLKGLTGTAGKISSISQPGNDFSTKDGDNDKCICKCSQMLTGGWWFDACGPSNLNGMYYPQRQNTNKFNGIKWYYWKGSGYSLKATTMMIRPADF

human Ang-2443 = biological target: T6, human Ang-2443 (human, UniProt O15123 19-496); assay: ELISA
T6 construct: Splice variant missing amino acids 96-148; supernatant of transfected 293F cells
T6 sequence: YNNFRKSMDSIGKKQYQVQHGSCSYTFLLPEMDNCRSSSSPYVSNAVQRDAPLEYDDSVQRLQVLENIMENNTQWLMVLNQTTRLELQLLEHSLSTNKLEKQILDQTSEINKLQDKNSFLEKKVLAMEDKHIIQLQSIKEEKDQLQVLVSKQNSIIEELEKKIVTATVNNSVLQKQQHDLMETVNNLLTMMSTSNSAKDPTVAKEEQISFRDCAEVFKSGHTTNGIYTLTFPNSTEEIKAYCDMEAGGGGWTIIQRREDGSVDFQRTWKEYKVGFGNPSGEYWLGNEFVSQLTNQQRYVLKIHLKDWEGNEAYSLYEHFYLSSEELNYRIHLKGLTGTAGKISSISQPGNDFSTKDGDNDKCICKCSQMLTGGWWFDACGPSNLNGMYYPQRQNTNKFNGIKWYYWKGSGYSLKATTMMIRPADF

[5] = biological target: T7, recombinant human Tie2/Fc fusion protein (human, UniProt Q02763 23-745); assay: FACS competition: binding of His-tagged recombinant human Ang-1 to Tie2 on HEK293F/Tie2 transfectants, soluble Tie2/Fc titrated, n = 3
T7 construct: Bought fusion protein; also called hTie2/Fc; soluble Tie2/Fc
T7 sequence (Q02763 23-745 limits assumed): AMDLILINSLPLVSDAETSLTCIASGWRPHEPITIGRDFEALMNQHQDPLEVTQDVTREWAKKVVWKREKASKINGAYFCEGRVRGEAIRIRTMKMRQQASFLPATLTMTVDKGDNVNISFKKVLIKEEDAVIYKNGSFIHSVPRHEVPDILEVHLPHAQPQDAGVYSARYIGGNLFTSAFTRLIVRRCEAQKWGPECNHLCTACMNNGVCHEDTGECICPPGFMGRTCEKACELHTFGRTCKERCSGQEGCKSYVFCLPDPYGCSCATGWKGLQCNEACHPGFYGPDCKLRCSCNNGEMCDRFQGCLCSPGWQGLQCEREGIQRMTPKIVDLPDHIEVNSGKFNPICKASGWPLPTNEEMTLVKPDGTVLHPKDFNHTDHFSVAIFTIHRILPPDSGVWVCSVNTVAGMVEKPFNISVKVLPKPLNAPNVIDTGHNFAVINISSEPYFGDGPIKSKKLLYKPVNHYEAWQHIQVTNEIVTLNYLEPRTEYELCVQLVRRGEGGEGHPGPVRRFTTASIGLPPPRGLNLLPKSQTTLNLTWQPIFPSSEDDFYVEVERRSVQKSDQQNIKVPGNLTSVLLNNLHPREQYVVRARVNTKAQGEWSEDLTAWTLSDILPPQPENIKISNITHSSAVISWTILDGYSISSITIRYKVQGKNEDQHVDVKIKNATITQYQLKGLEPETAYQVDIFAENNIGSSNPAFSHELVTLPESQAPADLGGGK
Description: Cell suspension of 4 million cells/mL in FACS Buffer were prepared, and then aliquoted to a 96-well polypropylene plate with 50 ul per well. […] Cells were washed by centrifuging the plate at 1,200 rpm for 5 minutes, removing the supernatant by aspirating, and resuspending the cells with 200 ul per well of FACS Buffer. Washing procedures were repeated twice. The cells were then suspended with 100 ul of mouse Anti-6×-Histidine antibody diluted to 2 ug/ml in FACS Buffer, and incubated at room temperature for 30 minutes. After washing, the cells were suspended in 100 ul of PE-conjugated goat anti-mouse-IgG, which was diluted 1:100 in FACS Buffer, for incubation at room temperature for 30 minutes. The volume of the samples were brought to 300 ul with FACS Buffer, and measured with FACS Calibur.

B1: mAb 5.41.1 (antibody, V domains shown)
VH: EVQLVESGGGLVQPGGSLRLSCAASGFTFSSYWMSWVRQAPGKGLEWVANIKEDGSEKYYVDSVKGRFTISRDNAKNSLYLQMNSLRAEDTAVFYCARDRSSGFFDYWGQGTLVTVSS
VL: EIVMTQSPATLSVSPGERATLSCRASQSVSSNLAWYQQKPGQAPRFLIYGASTRATGIPARFSGSGSGTEFTLTISSLQSEDFAVYYCQQYNHWWTFGQGTKVEIKR
notes: Human hybridoma IgG (XenoMouse); also called x5.41
B1: no binding (mouse Angiopoietin-2); no binding (human Angiopoietin-1).

B2: mAb 5.16.3 (antibody, V domains shown)
VH: QVQLVQSGAEVKKPGASVKVSCKASGYTFTGFYMYWVRQAPGQGLEWMGWINPNSSGTNHAQKFQGRVTMTRDTSISTAYMELSRLRSDDTAVYYCARDQDIATAGPFDYWGQGTLVTVSS
VL: EIVMTQSPATLSVSPGERATLSCRASQSVSSNLAWYQQKPGQAPRLLIFGASTRATGIPARFSGSGSGTEFTLTISSLQSEDFAVYYCQQYNNWWTFGRGTKVEIKR
notes: Human hybridoma IgG (XenoMouse); also called x5.16
B2: no binding (mouse Angiopoietin-2); no binding (human Angiopoietin-1).

B3: mAb 6.3.1 (antibody, V domains shown)
VH: QVQLVQSGAEVKKPGASVKVSCKASGYTFTGYFMHWVPQAPGQGLEWMGWINPNSGGTNYAQNFQGRVTMTRDTSISTAYMELSRLRSDDTPVYYCARDPWQNWNSYFDYWGQGTLVTVSS
VL: DIQMTQSPSSLSASVGDRVTITCRASQSIRSYLNWYQQKPGKAPKVLIYAASSLQSGVPSRFSGSGSGTDFTLTISSLQPEDFATYYCQQSYSTLCSFGQGTKLEIKR
notes: Human hybridoma IgG (XenoMouse); also called x6.3
For B3, the “OD650 in inhibition assay” value (human Angiopoietin-2 [1]) was 0.0617 OD650, the Kd (human Angiopoietin-2 [2]) was at most 0.073 nM and the kon (human Angiopoietin-2 [2]) was 140000 M⁻¹ s⁻¹. The koff (human Angiopoietin-2 [3]) was at most 1e-05 s⁻¹, the binding result (human Angiopoietin-1) was “no binding” and the “% of binding to human Ang-2” value (human Ang-2 V345M) was 100%. The “% of binding to human Ang-2” value (human Ang-2 H375Q) was 100%, the “% of binding to human Ang-2” value [4] was 100% and the “% of binding to human Ang-2” value (human Ang-2443) was 100%.

B4: binds [5].
